Source: US20050239730A1, “Plasmodium falciparum erythrocyte binding protein baebl for use as a vaccine” (priority 2001, published 2005)

Columns and labels:
[1] = system: binding of BAEBL to human erythrocytes; experiment: Competitive inhibition assay; conditions: 1 μM, 10 μM, 100 μM, and 1000 μM; preincubated 1 hr at room temperature
Method: To determine the specificity of binding, we studied binding to neuraminidase-and trypsin-treated human erythrocytes and human erythrocytes with various genetically modified blood groups. […] To determine whether BAEBL was binding to the carbohydrates on the erythrocyte receptor, we performed competitive inhibition with Neu5Ac(α2-3) lactosialic and Neu5Ac(α2-6)lactosialic acid at 1 μM, 10 μM, 100 μM, and 1000 μM.
An inhibition assay was conducted in the presence of Neu5Ac(α2-3) lactosialic acid or Neu5Ac(α2-6) lactosialic acid (Sigma). Metabolically labeled parasite supernatant (50 μl) was preincubated with 1, 10, 100, or 1000 μM in 15 μl of the aforementioned carbohydrates for 1 hr at room temperature. Packed erythrocytes (50 μl) were added to the mixture. The erythrocyte binding assay was conducted as described above. Immunolocalization of BAEBL.

[2] = molecular target: Gerbich human erythrocytes (exon 3 deletion of glycophorin C/D: shortened glycophorin C, absent glycophorin D); experiment: region II on COS cells, erythrocyte-binding assay
[3] = molecular target: neuraminidase-treated normal human erythrocytes; experiment: region II on COS cells, erythrocyte-binding assay
[4] = molecular target: normal human erythrocytes (untreated); experiment: region II on COS cells, erythrocyte-binding assay
[5] = molecular target: trypsin-treated human erythrocytes; experiment: region II on COS cells, erythrocyte-binding assay

Row | Molecule | Inhibition of the binding of BAEBL to human erythrocytes [1] | percentage of binding to normal, untreated RBC [2] | percentage of binding to normal, untreated RBC [3] | COS cells with five or more attached RBC, total per coverslip (COS cells per coverslip) [4] | percentage of binding to normal, untreated RBC [5]
1 | CC(=O)NC1C(O)CC(OCC2OC(OC3C(CO)OC(O)C(O)C3O)C(O)C(O)C2O)(C(=O)O)OC1C(O)C(O)CO (stereo not drawn) [Neu5Ac(α2-6) lactosialic acid] | neither Neu5Ac(α2-3) nor Neu5Ac(α2-6) lactosialic acid inhibited the binding | – | – | – | –
2 | CC(=O)NC1C(O)CC(OC2C(O)C(CO)OC(OC3C(CO)OC(O)C(O)C3O)C2O)(C(=O)O)OC1C(O)C(O)CO (stereo not drawn) [Neu5Ac(α2-3) lactosialic acid] | neither Neu5Ac(α2-3) nor Neu5Ac(α2-6) lactosialic acid inhibited the binding | – | – | – | –
3 | BAEBL region II variant INRE, expressed on the surface of COS cells (ligand) | – | 100% | 110% | 67 | 114%
4 | BAEBL region II variant VSKK, expressed on the surface of COS cells (ligand) | – | 112% | 90% | 58 | –
5 | BAEBL region II variant ISKK, expressed on the surface of COS cells (ligand) | – | 96% | – | 59 | 92%
